Source: US20090305946A1 (University of California, published 2009)

T1: rat G-protein Gαq in rat hippocampal membranes (rat, UniProt P82471 1-359)
T1 construct: also called Gq
T1 sequence (looked up): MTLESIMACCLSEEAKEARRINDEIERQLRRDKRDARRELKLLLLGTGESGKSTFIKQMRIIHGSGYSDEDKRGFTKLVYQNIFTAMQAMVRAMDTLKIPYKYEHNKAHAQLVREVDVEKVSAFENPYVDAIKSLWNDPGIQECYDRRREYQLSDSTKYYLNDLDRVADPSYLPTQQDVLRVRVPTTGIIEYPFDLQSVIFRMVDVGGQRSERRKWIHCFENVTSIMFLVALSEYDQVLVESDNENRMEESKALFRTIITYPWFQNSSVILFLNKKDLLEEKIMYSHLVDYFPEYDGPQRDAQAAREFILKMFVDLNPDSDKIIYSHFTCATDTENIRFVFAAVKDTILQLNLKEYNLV


Experiments:
[1] = target: T1, rat G-protein Gαq in rat hippocampal …; assay: stimulation of ^35S-GTPγS binding by the peptide in rat hippocampal membranes
[2] = target: tail-less PS-1 (amino acids 1-430 of PS-1) (human, UniProt P49768 1-430); assay: co-immunoprecipitation with MAb to the PS-1 loop, Western blot with anti-Go
Text: Verification of the binding of G-protein Gₒ to the cytoplasmic carboxyl terminus of PS-1. A tail-less construct of PS-1 was made in pcDNA3 in which only the cytoplasmic domain of PS-1 immediately following the last TM-domain is deleted (this construct comprises amino acids 1-430). This construct was used to transfect ES (PS-1^{-/-}/PS-2^{-/-}) cells. […] In an identical strategy to the one described above for full-length PS-1, ES (PS-1^{-/-}/PS-2^{-/-}) cells were transfected with cDNAs for tail-less PS-1 and the G-proteins GoA or GoB. Cells extracts were then subjected to immunoprecipitation with PS-1 loop MAb #5232), separated on SDS PAGE and Western blotted with antibodies to Gₒ.
100 μg of extract of ES (PS-1^{-/-}/PS-2^{-/-}) cells co-transfected with cDNAs for tail-less PS-1 and the G-protein GαoA or GαoB were immunoprecipitated with MAb to the large hydrophilic loop of PS-1, followed by Western blot hybridization with affinity purified polyclonal antibody to Gₒ (recognizes both isoforms, GoA and GoB).

| Binder | binding result [1] | binding result [2] |
| --- | --- | --- |
| KYLPE (Synthetic peptide; also called loop 3; Cytoplasmic Loop 3 peptide) [PS-1 cytoplasmic peptide ic3 (KYLPE)] | binds |  |
| TDYLVQPFMDQLAFHQFYI (Synthetic peptide; also called residues 21-39 of the C-tail) [PS-1 cytoplasmic peptide C(21-39), last 19 amino acids of the C-tail] | binds |  |
| human G-protein GαoB (other, Co-transfected with PS constructs in ES double-null cells; assayed in detergent extracts; also called GoB; GOB) GCTLSAEERAALERSKAIEKNLKEDGISAAKDVKLLLLGAGESGKSTIVKQMKIIHEDGFSGEDVKQYKPVVYSNTIQSLAAIVRAMDTLGIEYGDKERKADAKMVCDVVSRMEDTEPFSAELLSAMMRLWGDSGIQECFNRSREYQLNDSAKYYLDSLDRIGAADYQPTEQDILRTRVKTTGIVETHFTFKNLHFRLFDVGGQRSERKKWIHCFEDVTAIIFCVALSGYDQVLHEDETTNRMHESLKLFDSICNNKWFTDTSIILFLNKKDIFEEKIKKSPLTICFPEYTGPSAFTEAVAYIQAQYESKNKSAHKEIYTHVTCATDTNNIQFVFDAVTDVIIAKNLRGCGLY |  | no binding |
